{"source": "paper PMC6222095", "biological_target": "T1, complement factor H, homozygous Tyr-402/Val-62 allotype (human), P08603", "T1 chain": "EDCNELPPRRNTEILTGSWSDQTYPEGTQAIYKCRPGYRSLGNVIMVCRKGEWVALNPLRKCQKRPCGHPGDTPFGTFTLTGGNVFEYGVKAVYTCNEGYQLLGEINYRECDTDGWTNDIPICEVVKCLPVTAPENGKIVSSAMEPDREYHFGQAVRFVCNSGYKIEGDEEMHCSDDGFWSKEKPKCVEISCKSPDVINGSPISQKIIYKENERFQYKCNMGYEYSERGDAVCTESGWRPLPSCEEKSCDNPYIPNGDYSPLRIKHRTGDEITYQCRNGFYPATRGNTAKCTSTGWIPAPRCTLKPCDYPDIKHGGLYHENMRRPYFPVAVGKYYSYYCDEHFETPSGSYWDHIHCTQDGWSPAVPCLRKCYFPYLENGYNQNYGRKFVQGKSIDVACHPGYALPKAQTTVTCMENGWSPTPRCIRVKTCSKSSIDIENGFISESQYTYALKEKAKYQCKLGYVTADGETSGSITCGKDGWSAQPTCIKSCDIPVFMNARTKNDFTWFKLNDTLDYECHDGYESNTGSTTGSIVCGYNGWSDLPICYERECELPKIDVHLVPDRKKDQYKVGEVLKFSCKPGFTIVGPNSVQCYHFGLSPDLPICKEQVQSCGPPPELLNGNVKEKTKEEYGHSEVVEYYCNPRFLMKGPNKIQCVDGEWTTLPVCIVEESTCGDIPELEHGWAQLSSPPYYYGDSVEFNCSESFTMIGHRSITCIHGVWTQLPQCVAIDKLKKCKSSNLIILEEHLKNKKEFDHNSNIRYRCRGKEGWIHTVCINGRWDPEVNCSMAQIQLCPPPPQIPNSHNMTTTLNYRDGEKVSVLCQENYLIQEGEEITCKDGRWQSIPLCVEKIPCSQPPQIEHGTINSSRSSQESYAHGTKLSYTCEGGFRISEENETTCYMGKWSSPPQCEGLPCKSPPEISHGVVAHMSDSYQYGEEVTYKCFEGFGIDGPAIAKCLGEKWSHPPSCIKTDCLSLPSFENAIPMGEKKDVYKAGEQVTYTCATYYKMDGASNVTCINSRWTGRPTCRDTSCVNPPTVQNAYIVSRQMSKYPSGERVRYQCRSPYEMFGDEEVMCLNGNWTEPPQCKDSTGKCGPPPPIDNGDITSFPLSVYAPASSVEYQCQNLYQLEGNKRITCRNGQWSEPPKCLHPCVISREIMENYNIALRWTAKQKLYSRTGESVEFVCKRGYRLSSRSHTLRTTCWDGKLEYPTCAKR", "assay": "SPR", "settings": "natural protein, eight biantennary disialylated N-glycans, sites as printed: Asn-511, Asn-700, Asn-784, Asn-804, Asn-864, Asn-892, Asn-1011, Asn-1077, remark: other sources report otherwise"}
{"binder": "complement factor H, homozygous Tyr-402/Val-62 allotype, P08603 19-1231 (protein) EDCNELPPRRNTEILTGSWSDQTYPEGTQAIYKCRPGYRSLGNVIMVCRKGEWVALNPLRKCQKRPCGHPGDTPFGTFTLTGGNVFEYGVKAVYTCNEGYQLLGEINYRECDTDGWTNDIPICEVVKCLPVTAPENGKIVSSAMEPDREYHFGQAVRFVCNSGYKIEGDEEMHCSDDGFWSKEKPKCVEISCKSPDVINGSPISQKIIYKENERFQYKCNMGYEYSERGDAVCTESGWRPLPSCEEKSCDNPYIPNGDYSPLRIKHRTGDEITYQCRNGFYPATRGNTAKCTSTGWIPAPRCTLKPCDYPDIKHGGLYHENMRRPYFPVAVGKYYSYYCDEHFETPSGSYWDHIHCTQDGWSPAVPCLRKCYFPYLENGYNQNYGRKFVQGKSIDVACHPGYALPKAQTTVTCMENGWSPTPRCIRVKTCSKSSIDIENGFISESQYTYALKEKAKYQCKLGYVTADGETSGSITCGKDGWSAQPTCIKSCDIPVFMNARTKNDFTWFKLNDTLDYECHDGYESNTGSTTGSIVCGYNGWSDLPICYERECELPKIDVHLVPDRKKDQYKVGEVLKFSCKPGFTIVGPNSVQCYHFGLSPDLPICKEQVQSCGPPPELLNGNVKEKTKEEYGHSEVVEYYCNPRFLMKGPNKIQCVDGEWTTLPVCIVEESTCGDIPELEHGWAQLSSPPYYYGDSVEFNCSESFTMIGHRSITCIHGVWTQLPQCVAIDKLKKCKSSNLIILEEHLKNKKEFDHNSNIRYRCRGKEGWIHTVCINGRWDPEVNCSMAQIQLCPPPPQIPNSHNMTTTLNYRDGEKVSVLCQENYLIQEGEEITCKDGRWQSIPLCVEKIPCSQPPQIEHGTINSSRSSQESYAHGTKLSYTCEGGFRISEENETTCYMGKWSSPPQCEGLPCKSPPEISHGVVAHMSDSYQYGEEVTYKCFEGFGIDGPAIAKCLGEKWSHPPSCIKTDCLSLPSFENAIPMGEKKDVYKAGEQVTYTCATYYKMDGASNVTCINSRWTGRPTCRDTSCVNPPTVQNAYIVSRQMSKYPSGERVRYQCRSPYEMFGDEEVMCLNGNWTEPPQCKDSTGKCGPPPPIDNGDITSFPLSVYAPASSVEYQCQNLYQLEGNKRITCRNGQWSEPPKCLHPCVISREIMENYNIALRWTAKQKLYSRTGESVEFVCKRGYRLSSRSHTLRTTCWDGKLEYPTCAKR", "values": [{"measurement": "Kd", "result": "> 40", "unit": "µM"}]}
